Reference: patent US20230064196A1

What was measured:
canine PD-1 (canine) [1] = assay: flow cytometry; row 1*10^4; Anti-mouse IgGFc-Alexa Fluor 647(1:500)
human BTLA (human) [2] = target: human BTLA (human) (UniProt Q7Z6A9); assay: as above
canine PD-1 (canine) [3] = assay: flow cytometry; row 1*10^5; Anti-mouse IgGFc-Alexa Fluor 647(1:500)
human BTLA (human) [4] = target: human BTLA (human) (UniProt Q7Z6A9); assay: as above
canine PD-1 (canine) [5] = assay: flow cytometry; row 1*10^3; Anti-mouse IgGFc-Alexa Fluor 647(1:500)
human BTLA (human) [6] = target: human BTLA (human) (UniProt Q7Z6A9); assay: as above

Sequence of UniProt Q7Z6A9 (Q7Z6A9 31-157 limits assumed): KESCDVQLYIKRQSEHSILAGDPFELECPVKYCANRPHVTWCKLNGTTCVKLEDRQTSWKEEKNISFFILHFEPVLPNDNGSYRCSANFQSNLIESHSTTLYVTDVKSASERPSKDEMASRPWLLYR

NC showed a percent of cells in the gate (canine PD-1 (canine) [1]) of 0.068%, a percent of cells in the gate (human BTLA (human) [2]) of 1.2% and a percent of cells in the gate (canine PD-1 (canine) [3]) of 0.273%. For the same substance, the percent of cells in the gate (human BTLA (human) [4]) was 0.841%, the percent of cells in the gate (canine PD-1 (canine) [5]) was 0.155% and the percent of cells in the gate (human BTLA (human) [6]) was 0.406%.
